Target: T1, neuropilin 1 (NRP1) (UniProt O14786 22-856, biotinylated at a 1:2 molar ratio)
T1 construct: neuropilin 1 (NRP1), recombinant, R&D Systems catalog no; 3870-N1-025; source: bought: R&D Systems (catalog no. 3870-N1-025)
T1 sequence (looked up): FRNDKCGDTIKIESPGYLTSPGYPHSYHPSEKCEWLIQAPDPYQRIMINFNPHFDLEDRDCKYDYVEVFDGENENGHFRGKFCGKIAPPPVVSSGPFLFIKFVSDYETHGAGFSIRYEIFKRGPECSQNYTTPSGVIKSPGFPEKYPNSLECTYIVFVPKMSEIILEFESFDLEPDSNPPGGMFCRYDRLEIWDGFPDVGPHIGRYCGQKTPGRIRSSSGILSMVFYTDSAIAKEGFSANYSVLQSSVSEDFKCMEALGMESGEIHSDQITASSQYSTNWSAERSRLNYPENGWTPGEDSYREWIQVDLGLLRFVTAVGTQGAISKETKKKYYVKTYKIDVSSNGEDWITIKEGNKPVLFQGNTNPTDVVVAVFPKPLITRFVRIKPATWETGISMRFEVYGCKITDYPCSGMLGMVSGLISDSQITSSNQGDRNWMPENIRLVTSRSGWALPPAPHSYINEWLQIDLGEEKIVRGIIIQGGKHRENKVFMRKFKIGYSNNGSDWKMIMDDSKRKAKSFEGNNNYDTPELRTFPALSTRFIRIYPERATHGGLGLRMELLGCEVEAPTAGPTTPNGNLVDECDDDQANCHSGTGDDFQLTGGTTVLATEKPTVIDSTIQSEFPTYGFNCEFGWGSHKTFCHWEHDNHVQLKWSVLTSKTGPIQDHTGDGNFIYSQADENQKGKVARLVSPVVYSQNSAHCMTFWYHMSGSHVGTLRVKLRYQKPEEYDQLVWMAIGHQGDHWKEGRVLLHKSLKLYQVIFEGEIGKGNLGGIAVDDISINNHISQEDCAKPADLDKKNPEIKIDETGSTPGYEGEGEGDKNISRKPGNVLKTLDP
Assay: BLI; biotinylated NRP1 immobilised on streptavidin biosensor tips (Octet); 30 °C, 1,000 rpm; 240 s association, 300 s dissociation; SD Buffer (PBS, 0.05% Tween 20, 0.01% BSA, pH 7.4); 1:1 binding model, global fitting
Conditions: both partners purified

fold affinity against WT CTR-RELN: 10 fold
B1: Fc-fusion CTR-RELN H3447R (CTR-RELN-COLBOS) (Fc fusion, human, UniProt P78509 3429-3460, looked up)
chain: STRKQNYMMNFSRQHGLRRFYNRRRRSLRRYP
notes: Reelin (RELN), C-terminal region, amino acids 3,429-3,460 (numbers of the 3,460-residue human protein), with the natural variant H3447R (COLBOS); source: DNA encoding amino acids 3,429-3,460 of RELN-CTR cloned into the pFUSEN-hG2Fc plasmid (InvivoGen)
